# Assay results reported in patent publication US11833164B2, “Methods of treating Fabry disease in patients having a mutation in the GLA gene” (Amicus Therapeutics, Inc., priority 2019, dated 2023).
# Test system: mutant form of α-Gal A expressed in HEK-293 cells
# Experiment: HEK assay (GLP HEK / Migalastat Amenability Assay): α-Gal A activity in lysates of transiently transfected HEK-293 cells incubated with or without 10 μM migalastat
# Format: cell-based, human
# Conditions: for Absolute increase (% WT) / Relative increase: 10 μM migalastat versus baseline; for Baseline α-Gal A activity (% WT): absence of migalastat; for Baseline α-Gal A activity (% WT) / 10 μM migalastat α-Gal A activity (% WT): percentage of baseline wild-type α-Gal A activity; for Baseline α-Gal A activity (% WT) / Baseline α-Gal A activity / 10 μM migalastat α-Gal A activity / 10 μM migalastat α-Gal A activity (% WT): mean ± SEM; for Baseline α-Gal A activity / 10 μM migalastat α-Gal A activity: lysates of HEK-293 cells transiently transfected with the mutant form; for Baseline α-Gal A activity: incubated 5 days in absence of migalastat; for 10 μM migalastat α-Gal A activity: incubated 5 days with 10 μM migalastat; for 10 μM migalastat α-Gal A activity (% WT): with 10 μM migalastat, 5 days
# In short: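 HEK-293 cells transiently transfected with mutant α-Gal A and incubated with or without 10 μM migalastat; lysate activity given as nmol free 4-MU released per mg protein per hour. Values are mean±SEM.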
Molecule,Absolute increase (% WT),Relative increase,Baseline α-Gal A activity (% WT),Baseline α-Gal A activity,10 μM migalastat α-Gal A activity,10 μM migalastat α-Gal A activity (% WT)
D313E (protein) MQLRNPELHLGCALALRFLALVSWDIPGARALDNGLARTPTMGWLHWERFMCNLDCQEEPDSCISEKLFMEMAELMVSEGWKDAGYEYLCIDDCWMAPQRDSEGRLQADPQRFPHGIRQLANYVHSKGLKLGIYADVGNKTCAGFPGSFGYYDIDAQTFADWGVDLLKFDGCYCDSLENLADGYKHMSLALNRTGRSIVYSCEWPLYMWPFQKPNYTEIRQYCNHWRNFADIDDSWKSIKSILDWTSFNQERIVDVAGPGGWNDPDMLVIGNFGLSWNQQVTQMALWAIMAAPLFMSNDLRHISPQAKALLQEKDVIAINQDPLGKQGYQLRQGDNFEVWERPLSGLAWAVAMINRQEIGGPRSYTIAVASLGKGVACNPACFITQLLPVKRKLGFYEWTSRLRSHINPTGTVLLQLENTMQMSLKDLL,13.2 % WT,1.3,42.5 ± 2.3 % WT,14321 ± 1579 nmol/mg/h,18273 ± 1330 nmol/mg/h,55.7 ± 1.9 % WT
D315G (protein) MQLRNPELHLGCALALRFLALVSWDIPGARALDNGLARTPTMGWLHWERFMCNLDCQEEPDSCISEKLFMEMAELMVSEGWKDAGYEYLCIDDCWMAPQRDSEGRLQADPQRFPHGIRQLANYVHSKGLKLGIYADVGNKTCAGFPGSFGYYDIDAQTFADWGVDLLKFDGCYCDSLENLADGYKHMSLALNRTGRSIVYSCEWPLYMWPFQKPNYTEIRQYCNHWRNFADIDDSWKSIKSILDWTSFNQERIVDVAGPGGWNDPDMLVIGNFGLSWNQQVTQMALWAIMAAPLFMSNDLRHISPQAKALLQDKGVIAINQDPLGKQGYQLRQGDNFEVWERPLSGLAWAVAMINRQEIGGPRSYTIAVASLGKGVACNPACFITQLLPVKRKLGFYEWTSRLRSHINPTGTVLLQLENTMQMSLKDLL,23.6 % WT,1.4,49.7 ± 3.7 % WT,13326 ± 859 nmol/mg/h,19115 ± 1697 nmol/mg/h,73.3 ± 8 % WT
D315H (protein) MQLRNPELHLGCALALRFLALVSWDIPGARALDNGLARTPTMGWLHWERFMCNLDCQEEPDSCISEKLFMEMAELMVSEGWKDAGYEYLCIDDCWMAPQRDSEGRLQADPQRFPHGIRQLANYVHSKGLKLGIYADVGNKTCAGFPGSFGYYDIDAQTFADWGVDLLKFDGCYCDSLENLADGYKHMSLALNRTGRSIVYSCEWPLYMWPFQKPNYTEIRQYCNHWRNFADIDDSWKSIKSILDWTSFNQERIVDVAGPGGWNDPDMLVIGNFGLSWNQQVTQMALWAIMAAPLFMSNDLRHISPQAKALLQDKHVIAINQDPLGKQGYQLRQGDNFEVWERPLSGLAWAVAMINRQEIGGPRSYTIAVASLGKGVACNPACFITQLLPVKRKLGFYEWTSRLRSHINPTGTVLLQLENTMQMSLKDLL,17.4 % WT,1.4,35.7 ± 2.8 % WT,9791 ± 1077 nmol/mg/h,14136 ± 1573 nmol/mg/h,53.2 ± 5.5 % WT
K314T (protein) MQLRNPELHLGCALALRFLALVSWDIPGARALDNGLARTPTMGWLHWERFMCNLDCQEEPDSCISEKLFMEMAELMVSEGWKDAGYEYLCIDDCWMAPQRDSEGRLQADPQRFPHGIRQLANYVHSKGLKLGIYADVGNKTCAGFPGSFGYYDIDAQTFADWGVDLLKFDGCYCDSLENLADGYKHMSLALNRTGRSIVYSCEWPLYMWPFQKPNYTEIRQYCNHWRNFADIDDSWKSIKSILDWTSFNQERIVDVAGPGGWNDPDMLVIGNFGLSWNQQVTQMALWAIMAAPLFMSNDLRHISPQAKALLQDTDVIAINQDPLGKQGYQLRQGDNFEVWERPLSGLAWAVAMINRQEIGGPRSYTIAVASLGKGVACNPACFITQLLPVKRKLGFYEWTSRLRSHINPTGTVLLQLENTMQMSLKDLL,17.9 % WT,1.2,75.9 ± 4.4 % WT,25162 ± 2701 nmol/mg/h,30501 ± 2332 nmol/mg/h,93.8 ± 4.5 % WT
K314E (protein) MQLRNPELHLGCALALRFLALVSWDIPGARALDNGLARTPTMGWLHWERFMCNLDCQEEPDSCISEKLFMEMAELMVSEGWKDAGYEYLCIDDCWMAPQRDSEGRLQADPQRFPHGIRQLANYVHSKGLKLGIYADVGNKTCAGFPGSFGYYDIDAQTFADWGVDLLKFDGCYCDSLENLADGYKHMSLALNRTGRSIVYSCEWPLYMWPFQKPNYTEIRQYCNHWRNFADIDDSWKSIKSILDWTSFNQERIVDVAGPGGWNDPDMLVIGNFGLSWNQQVTQMALWAIMAAPLFMSNDLRHISPQAKALLQDEDVIAINQDPLGKQGYQLRQGDNFEVWERPLSGLAWAVAMINRQEIGGPRSYTIAVASLGKGVACNPACFITQLLPVKRKLGFYEWTSRLRSHINPTGTVLLQLENTMQMSLKDLL,11.0 % WT,1.3,37.7 ± 2.5 % WT,13026 ± 1767 nmol/mg/h,16765 ± 2098 nmol/mg/h,48.7 ± 2.8 % WT
D313V (protein) MQLRNPELHLGCALALRFLALVSWDIPGARALDNGLARTPTMGWLHWERFMCNLDCQEEPDSCISEKLFMEMAELMVSEGWKDAGYEYLCIDDCWMAPQRDSEGRLQADPQRFPHGIRQLANYVHSKGLKLGIYADVGNKTCAGFPGSFGYYDIDAQTFADWGVDLLKFDGCYCDSLENLADGYKHMSLALNRTGRSIVYSCEWPLYMWPFQKPNYTEIRQYCNHWRNFADIDDSWKSIKSILDWTSFNQERIVDVAGPGGWNDPDMLVIGNFGLSWNQQVTQMALWAIMAAPLFMSNDLRHISPQAKALLQVKDVIAINQDPLGKQGYQLRQGDNFEVWERPLSGLAWAVAMINRQEIGGPRSYTIAVASLGKGVACNPACFITQLLPVKRKLGFYEWTSRLRSHINPTGTVLLQLENTMQMSLKDLL,6.7 % WT,3.9,2.9 ± 0.2 % WT,894 ± 33 nmol/mg/h,3480 ± 580 nmol/mg/h,9.6 ± 0.9 % WT
K314M (protein) MQLRNPELHLGCALALRFLALVSWDIPGARALDNGLARTPTMGWLHWERFMCNLDCQEEPDSCISEKLFMEMAELMVSEGWKDAGYEYLCIDDCWMAPQRDSEGRLQADPQRFPHGIRQLANYVHSKGLKLGIYADVGNKTCAGFPGSFGYYDIDAQTFADWGVDLLKFDGCYCDSLENLADGYKHMSLALNRTGRSIVYSCEWPLYMWPFQKPNYTEIRQYCNHWRNFADIDDSWKSIKSILDWTSFNQERIVDVAGPGGWNDPDMLVIGNFGLSWNQQVTQMALWAIMAAPLFMSNDLRHISPQAKALLQDMDVIAINQDPLGKQGYQLRQGDNFEVWERPLSGLAWAVAMINRQEIGGPRSYTIAVASLGKGVACNPACFITQLLPVKRKLGFYEWTSRLRSHINPTGTVLLQLENTMQMSLKDLL,15.9 % WT,1.3,50.9 ± 3.8 % WT,18231 ± 2878 nmol/mg/h,23043 ± 2838 nmol/mg/h,66.8 ± 3.8 % WT
K314N (protein) MQLRNPELHLGCALALRFLALVSWDIPGARALDNGLARTPTMGWLHWERFMCNLDCQEEPDSCISEKLFMEMAELMVSEGWKDAGYEYLCIDDCWMAPQRDSEGRLQADPQRFPHGIRQLANYVHSKGLKLGIYADVGNKTCAGFPGSFGYYDIDAQTFADWGVDLLKFDGCYCDSLENLADGYKHMSLALNRTGRSIVYSCEWPLYMWPFQKPNYTEIRQYCNHWRNFADIDDSWKSIKSILDWTSFNQERIVDVAGPGGWNDPDMLVIGNFGLSWNQQVTQMALWAIMAAPLFMSNDLRHISPQAKALLQDNDVIAINQDPLGKQGYQLRQGDNFEVWERPLSGLAWAVAMINRQEIGGPRSYTIAVASLGKGVACNPACFITQLLPVKRKLGFYEWTSRLRSHINPTGTVLLQLENTMQMSLKDLL,10.8 % WT,1.2,39.1 ± 3.4 % WT,14205 ± 2418 nmol/mg/h,17364 ± 2225 nmol/mg/h,49.9 ± 2.6 % WT
D315A (protein) MQLRNPELHLGCALALRFLALVSWDIPGARALDNGLARTPTMGWLHWERFMCNLDCQEEPDSCISEKLFMEMAELMVSEGWKDAGYEYLCIDDCWMAPQRDSEGRLQADPQRFPHGIRQLANYVHSKGLKLGIYADVGNKTCAGFPGSFGYYDIDAQTFADWGVDLLKFDGCYCDSLENLADGYKHMSLALNRTGRSIVYSCEWPLYMWPFQKPNYTEIRQYCNHWRNFADIDDSWKSIKSILDWTSFNQERIVDVAGPGGWNDPDMLVIGNFGLSWNQQVTQMALWAIMAAPLFMSNDLRHISPQAKALLQDKAVIAINQDPLGKQGYQLRQGDNFEVWERPLSGLAWAVAMINRQEIGGPRSYTIAVASLGKGVACNPACFITQLLPVKRKLGFYEWTSRLRSHINPTGTVLLQLENTMQMSLKDLL,25.1 % WT,1.3,68.3 ± 4.8 % WT,18519 ± 1370 nmol/mg/h,24758 ± 1512 nmol/mg/h,93.4 ± 7 % WT
